Molecular target: T1, Pil1-mCherry-Atg38(161-190) (S. pombe), O94427
T1 chain: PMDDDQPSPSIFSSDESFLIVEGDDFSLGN
Settings: remark: other sources report otherwise

- PCC (Pearson correlation coefficient of colocalisation): 0.42
B1: GFP-Atg8^(P52A R67A), O94272 1-116 (natural protein)
chain: MRSQFKDDFSFEKRKTESQRIREKYPDRIPVICEKVDKSDIAAIDKKKYLVASDLTVGQFVYVIRKAIKLSPEKAIFIFIDEILPPTAALMSTIYEEHKSEDGFLYITYSGENTFG

— publication doi:10.1101/2021.04.13.439745
